Assay results reported in the supplement of paper PMC9170038.

Tested on: MS2 coat protein
Experiment: apparent KD of MS2 coat protein; higher = weaker reporter binding
Conditions: Eterna round: R107
How it was run: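 Titration buffer: 100 mM Tris-HCl pH 7.5, 80 mM KCl, 4 mM MgCl2, without or with constant ligand. Designed RNA switches transcribed on-chip from Illumina sequencing clusters received SNAP-549-labelled MS2 coat protein in twofold steps from 0.7 or 1.5 nM to 3 µM. Apparent KD is the median per design of fits to normalised cluster binding curves.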

[1] = input ligand: theophylline 20 uM
[2] = input ligand: theophylline 2 mM
[3] = input ligand: tryptophan 2.4 mM

| Sequence | apparent KD of MS2 coat protein (input ligand: arginine 13.2 mM) [nM] | apparent KD of MS2 coat protein (input ligand: none) [nM] | apparent KD of MS2 coat protein [1] [nM] | apparent KD of MS2 coat protein [2] [nM] | apparent KD of MS2 coat protein [3] [nM] |
| --- | --- | --- | --- | --- | --- |
| UCGUCAGGCGCGGCCGCCACUGCGGUGAUGUGACAUGAGGAUCACCCAUGUUGUCAUGUGGCACAUAGGACCGGGUGCCUGGCGA [Exclusion - Tryptophan B Attempt #5 (HarryS)] | 8.16 | 56 | 44.5 | 114 | 17.6 |
| UCGUGGUCCGCAAGGACCGGGAGUUGCGAUACCAGCACGGUAACGUGCCCUUGGCAGCGCACAUGAGGAUCACCCAUGUGGUGUU [#1 Exclusion - Theophylline A Attempt #14 (HarryS)] | 40.9 | – | 305 | – | 174 |
| UCGUGUAUUUCGGAUACCAGUGAAAUCGAUACAUGAGGAUCACCCAUGUGAGAGGAUGUACACCCUUGGCAGCUGUAUAUAUCUG [fgfmullin] | 18.7 | 29.1 | 38.7 | 24.8 | 21.9 |
| UCGUGUGUUUCGGAUACCAGUGAAAUCGAUACAUGAGGAUCACCCAUGUGAGAGGAUGUACACCCUUGGCAGCUGUCUGUAUCGG [asczmullin] | 40.6 | 54.2 | 58.6 | 43.8 | 43 |
| UCGUGUGUUUCGGAUACCAGUGUGGUCGAUACAUGAGGAUCACCCAUGUUAGAGGAGGUACACCCUUGGCAGCCGGCUGUUGCGG [kdtmullin] | 59.9 | – | 88.5 | – | 79.5 |
| UCGUUUGAGUCGGCCGCCACUGGUCUCAUGGUCAACAUGAGGAUCACCCAUGUAUCUUAGUUAAACAGGACCGGGACUCGAUCGA [#17 Exclusion Tryptophan B] | 62.5 | 50.5 | 67.7 | 34.3 | 20.6 |
| UCUUUCUAUGUAGAUACCAGCAUGUUAUCUUUCUUUUGACAUGAGGAUCACCCAUGUAAAUGCCCUUGGCAGCUACAUUUUCUUU [SSTHB #3] | 21 | – | 20.9 | – | 19.7 |
| UGACAUUGCUCAGAUACCAGACAGGAGGAUCACUCCUGUGCCAACAAGUACAAAAUAAAUGUCCCUUGGCAGCUGAGCAAUGUCU [TheoBX 25 #MS2Left #AlternativeMS2 #Theo22] | 32 | 71.1 | 223 | 459 | 49 |
| UGACAUUGCUCAGAUACCAGACAUGAGGAUCACCCAUGUACCGAGGUACCCGAAAGGAAUGUCCCUUGGCAGCUGAGCAAUGUCU [TheoBX 4 #MS2Left #Theo2 #StaticStem] | 12.9 | – | 15.5 | – | 11 |
| UGAUCCUAGACUGAUACCAGUCAUGAGUACAUGAGGAUCACCCAUGUCCAGGGACUCAAUGACCCUUGGCAGCAGAACCUAGUUC [Theo B SS t7] | 155 | – | 414 | – | 389 |
| UGAUUGAACGGAAGGAGCGUGUAAGAACAAGAACAUGAGGAUCACCCAUGUAUUAAUUUAACACAGGUAGGUCGCCGAGAGAUUG [11.D] | 16 | 14.6 | 15.2 | 14 | 12 |
| UGCCGAGACGUGGAUUACCCAUGUACAGAAGGAGCGCCCGAAAGGGCAGGUAGGUCGCUGAGGACAUGAGGAUCACCCAUGUCGA | 36.6 | 54.8 | 52 | 49.5 | 43.3 |
| UGCCGAGACGUGGAUUACCCGUGUACCGAAGGAGCGCCCGAAAGGGCAGGUAGGUCGCGGAGGACAUGAGGAUCACCCAUGUUGA | 32.8 | 73.7 | 43.7 | 96.8 | 54.8 |
| UGCCUAGACGUGGAUUACCCGUGUACCGAAGGAGCGCCCGAAAGGGCAGGUAGGUCGCGGAGGACAUGAGGAUCACCCAUGUUUG | 44.8 | 117 | 123 | 134 | 88.5 |
| UGGAUAAGGGUAAAUAGGAUAAGUACAGAAGGAGCGCGAAUAAACGCAGGUAGGUCGCUGGACAUGAGGAUCACCCAUGUAAAUG [Same State Arginine A GF 22] | 45.9 | 48.8 | 77.1 | 57.6 | 50 |
| UGGCAAGAGGGAAGGAGCGUCAGCUGAGUCACAUGAGGAUCACCCAUGUCGCACAUAGUGUGACAGGUAGGUCGCCCUCUACCCU [Rearian] | 67.9 | 222 | 209 | 217 | 148 |
